The target of series [1] is D2 (his-tagged domain 2 of extracellular endo-alpha-(1->5)-L-arabinanase 1) (Geobacillus stearothermophilus T-6) (UniProt B3EYN2). Description: reflectometric porous-silicon aptasensor (real-time EOT). The conditions noted are these: 5'-amino, Selection buffer: 50 mM K2HPO4, 150 mM NaCl, pH 7.4, flow 30 uL/min for 1 h, temperature not stated, elution with 1 M imidazole.
Series [2] concerns the target D2N (D2 without his tag) (Geobacillus stearothermophilus T-6) (UniProt B3EYN2). The series is described as above. The conditions noted are these: 1 uM protein, 5'-amino, Selection buffer: 50 mM K2HPO4, 150 mM NaCl, pH 7.4, flow 30 uL/min for 1 h, temperature not stated, elution with 1 M imidazole.

These results are taken from PMC7862519.

For the sequence “GCTATGGGTGGTCTGGTTGGGATTGGCCCCGGGAGCTGGC [anti-his tag aptamer 6H7]”, the binding signal (relative dEOT/EOT0 x10^-3) in series [1] (0.25 uM protein, 3D-printed microfluidic) amounted to 1.6; in series [1] (0.5 uM protein, 3D-printed microfluidic, reused sensor), 2.3; in series [1] (1 uM protein, 3D-printed microfluidic, released by 1 M imidazole), 4; in series [1] (1 uM protein, PDMS microfluidic, signal partly non-specific adsorption) it was 3.2; in series [2] (PDMS microfluidic, ascribed to non-specific adsorption) it was 1.7; in series [2] (3D-printed microfluidic), 0.8.
